This note sets out measurements from PMC13193388, “Dimerization‐dependent NOTCH receptor transactivation unveils a class of highly selective NOTCH signalling inhibitors” (The Febs Journal, 2025).

The experiment has as its target T1, purified recombinant HIS epitope-tagged NOTCH3 extracellular domain (human, UniProt Q9UM47 40-1643, glycosylated).
T1 construct: NOTCH3, human, complete extracellular domain; written as one chain so that the self-association rows stand for chain with chain; also called N3 ECD; NOTCH3-ECD protein; source: PEC.3.30 (modified Per.E2A) cells, purified from supernatant (HisTrap HP, Superdex 200); not shown: HIS, C-terminal, kept
Put plainly: SPR; Biacore T200; NOTCH3-ECD immobilized on NTA Series S chip by nickel-NTA capture-coupling (about 3500 RU); peptides flowed at 30 μL/min; 50 mM HEPES, 150 mM NaCl, 25 °C; steady-state affinity model. The conditions noted are these: both partners purified.

T1 sequence (Q9UM47 40-1643): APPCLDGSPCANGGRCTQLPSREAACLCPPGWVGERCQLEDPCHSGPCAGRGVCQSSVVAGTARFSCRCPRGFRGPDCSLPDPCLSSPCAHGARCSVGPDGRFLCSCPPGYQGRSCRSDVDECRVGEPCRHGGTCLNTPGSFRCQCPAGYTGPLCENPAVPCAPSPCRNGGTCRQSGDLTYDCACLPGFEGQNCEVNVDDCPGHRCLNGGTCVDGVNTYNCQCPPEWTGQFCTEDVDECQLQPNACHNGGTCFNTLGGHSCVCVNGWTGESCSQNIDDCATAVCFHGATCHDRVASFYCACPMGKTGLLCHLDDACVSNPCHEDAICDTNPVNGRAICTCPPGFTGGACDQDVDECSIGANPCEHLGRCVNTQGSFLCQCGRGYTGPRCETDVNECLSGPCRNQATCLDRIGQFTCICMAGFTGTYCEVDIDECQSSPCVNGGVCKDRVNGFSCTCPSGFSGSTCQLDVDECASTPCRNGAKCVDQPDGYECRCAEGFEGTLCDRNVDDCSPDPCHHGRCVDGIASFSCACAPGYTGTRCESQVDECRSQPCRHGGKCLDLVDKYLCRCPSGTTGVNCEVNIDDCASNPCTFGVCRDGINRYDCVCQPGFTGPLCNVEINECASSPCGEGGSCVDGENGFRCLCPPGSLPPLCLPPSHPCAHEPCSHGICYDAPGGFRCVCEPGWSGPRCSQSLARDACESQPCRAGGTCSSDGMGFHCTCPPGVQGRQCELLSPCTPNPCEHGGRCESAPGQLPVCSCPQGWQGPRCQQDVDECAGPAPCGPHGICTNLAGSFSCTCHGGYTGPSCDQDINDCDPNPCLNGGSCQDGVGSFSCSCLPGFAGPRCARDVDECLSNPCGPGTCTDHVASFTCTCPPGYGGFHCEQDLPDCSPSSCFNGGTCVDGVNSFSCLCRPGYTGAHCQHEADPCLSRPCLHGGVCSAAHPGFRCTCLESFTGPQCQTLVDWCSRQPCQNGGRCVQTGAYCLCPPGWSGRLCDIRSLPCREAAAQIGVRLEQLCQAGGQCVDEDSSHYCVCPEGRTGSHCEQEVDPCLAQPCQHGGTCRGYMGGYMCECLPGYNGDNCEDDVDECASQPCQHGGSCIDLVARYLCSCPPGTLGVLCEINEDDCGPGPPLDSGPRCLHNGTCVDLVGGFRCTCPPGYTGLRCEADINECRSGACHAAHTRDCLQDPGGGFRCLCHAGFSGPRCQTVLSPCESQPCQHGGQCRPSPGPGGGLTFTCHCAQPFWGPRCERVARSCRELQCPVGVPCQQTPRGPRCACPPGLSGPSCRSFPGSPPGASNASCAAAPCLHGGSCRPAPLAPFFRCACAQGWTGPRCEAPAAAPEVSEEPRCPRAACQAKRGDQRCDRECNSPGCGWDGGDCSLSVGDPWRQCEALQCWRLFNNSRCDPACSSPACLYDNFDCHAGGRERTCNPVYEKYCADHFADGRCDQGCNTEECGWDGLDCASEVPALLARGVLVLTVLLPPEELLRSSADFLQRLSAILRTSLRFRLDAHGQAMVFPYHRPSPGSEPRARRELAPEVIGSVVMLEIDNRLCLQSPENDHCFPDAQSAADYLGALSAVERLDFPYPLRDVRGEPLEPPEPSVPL

B1: N34 peptide (peptide)
peptide: EKYCADHFADGR
notes: NOTCH3, human, peptide centred on the helix encompassing the core dimerization motif of the NRR; also called N3 peptide
As for B1, the binding result is listed as “binds”.
